Data taken from patent publication CN114989291A (ZHEJIANG ANWEILUO DIAGNOSTIC TECH CO LTD, dated 2022).

Tests used:
Assay in all cases: cell-based or functional assay
[1] = target: SARS-CoV-2 S蛋白, 突变株 B.1.525 (SARS-CoV-2)
[2] = target: SARS-CoV-2 S蛋白, 突变株 B.1.617.2 (SARS-CoV-2)
SARS-CoV-2 S蛋白, 突变株 P.1 = SARS-CoV-2 S蛋白, 突变株 P.1 (SARS-CoV-2)
[3] = target: SARS-CoV-2 S蛋白, 突变株 B.1.351 (SARS-CoV-2)
[4] = target: SARS-CoV-2 S蛋白, 突变株 B.1.1.7 (SARS-CoV-2)

B1: 抗SARS-CoV-2全人源化单克隆抗体1B3 (antibody, V domains shown)
VH: VQLVESGGGVVQPGRSLRLSCAASGFTFSSYAMHWVRQAPGKGLEWVAVISYDGSNKYYADSVKGRFTISRDNSKNTLYLQMNSLRAEDTAVYYCAKVAGGPYYYDSSGRDWYFDLWGRGTLVTVSA
VL: DIQMTQSPSSLSASVGDRVSITCRASQSISSFLNWFQQKPGKAPNLLIYAASSLESGVPSRFSGSGSGTDFTLTISSLQPEDFATYYCQQSYSAPPTFGQGTRLEIKR
[1]
  EC50, 假病毒细胞模型中和活性 (luciferase, ACE2-293T细胞): 1.7 µg/mL
[2]
  EC50, 假病毒细胞模型中和活性 (luciferase, ACE2-293T细胞): 1.69 µg/mL
SARS-CoV-2 S蛋白, 突变株 P.1
  EC50, 假病毒细胞模型中和活性 (luciferase, ACE2-293T细胞): 3.83 µg/mL
[3]
  EC50, 假病毒细胞模型中和活性 (luciferase, ACE2-293T细胞): 2.05 µg/mL
[4]
  EC50, 假病毒细胞模型中和活性 (luciferase, ACE2-293T细胞): 2.51 µg/mL
